Assay [1] addresses His-TEV LRRC4B (limits not told for Fig. 1G) (human). The experiment in a line: ELISA.
Assay [2] addresses His-TEV LRRC4B(36-576) (human) (UniProt Q9NT99). Put plainly: ELISA.
The target in assay [3] is LRRC4B(453-576)-hFc (human) (UniProt Q9NT99). Put plainly: ELISA.
Assay [4] concerns the target LRRC4B(484-576)-hFc (human) (UniProt Q9NT99). The experiment in a line: ELISA.
Assay [5] concerns the target 6xHis-LRRC4B(453–576) (human) (UniProt Q9NT99). Put plainly: SPR.
The target of assay [6] is FAM19A5 (wild type, recombinant) (human). The experiment in a line: ELISA.
Assay [7] concerns the target T1, PTPRF ectodomain (30-1263)-hFc (human, UniProt P10586-1 30-1263).
T1 sequence (looked up): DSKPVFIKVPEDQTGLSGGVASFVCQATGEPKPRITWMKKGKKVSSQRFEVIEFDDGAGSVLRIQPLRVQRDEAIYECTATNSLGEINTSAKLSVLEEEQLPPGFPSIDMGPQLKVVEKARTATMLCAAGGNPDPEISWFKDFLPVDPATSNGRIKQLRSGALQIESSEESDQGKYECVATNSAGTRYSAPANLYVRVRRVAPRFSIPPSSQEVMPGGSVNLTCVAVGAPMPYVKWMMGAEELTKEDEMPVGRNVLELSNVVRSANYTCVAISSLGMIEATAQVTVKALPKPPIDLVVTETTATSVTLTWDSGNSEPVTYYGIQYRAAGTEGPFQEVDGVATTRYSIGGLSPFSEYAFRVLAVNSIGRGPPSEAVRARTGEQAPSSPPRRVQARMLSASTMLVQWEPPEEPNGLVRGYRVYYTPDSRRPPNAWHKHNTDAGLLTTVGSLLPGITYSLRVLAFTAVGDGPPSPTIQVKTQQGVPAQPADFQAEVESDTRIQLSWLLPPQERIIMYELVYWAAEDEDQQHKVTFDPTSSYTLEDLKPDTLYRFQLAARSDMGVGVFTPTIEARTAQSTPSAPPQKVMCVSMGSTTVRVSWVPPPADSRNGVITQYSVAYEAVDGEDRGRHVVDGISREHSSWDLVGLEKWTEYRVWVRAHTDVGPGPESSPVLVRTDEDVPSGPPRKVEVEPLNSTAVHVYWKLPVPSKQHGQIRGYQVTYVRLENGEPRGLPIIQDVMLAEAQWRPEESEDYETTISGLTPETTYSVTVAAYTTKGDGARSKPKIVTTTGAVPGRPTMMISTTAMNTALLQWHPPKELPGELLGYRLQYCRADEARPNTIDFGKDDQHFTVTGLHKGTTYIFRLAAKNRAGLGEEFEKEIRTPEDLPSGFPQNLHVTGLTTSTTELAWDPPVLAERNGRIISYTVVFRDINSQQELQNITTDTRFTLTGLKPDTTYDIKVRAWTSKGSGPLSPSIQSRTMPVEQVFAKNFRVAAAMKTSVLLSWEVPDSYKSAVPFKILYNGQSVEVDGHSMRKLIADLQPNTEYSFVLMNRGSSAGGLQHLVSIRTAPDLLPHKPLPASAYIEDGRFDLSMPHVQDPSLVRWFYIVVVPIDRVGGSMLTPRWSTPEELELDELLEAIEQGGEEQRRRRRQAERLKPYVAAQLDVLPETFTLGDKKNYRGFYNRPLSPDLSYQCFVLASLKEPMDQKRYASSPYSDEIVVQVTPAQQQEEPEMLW
The experiment in a line: ELISA.

With “FAM19A5 (wild type, recombinant) (ligand)”, the EC50 came out at 0.41 nM in assay [1], 0.0685 nM in assay [3] and 0.112 nM in assay [4]. Besides, the 50% inhibitory concentration (IC50) in assay [2] came to 281 nM. In assay [5], this molecule yielded a Kd of 0.0321 nM. The molecule further returned a koff in assay [5] of 0.000157 s⁻¹. In addition, the kon in assay [5] came out at 4.89e+06 M⁻¹ s⁻¹.

The molecule MT FAM19A5(R58A, R59A) (ligand) came in with an EC50 in assay [1] of 0.595 nM.

B1: LRRC4B(453-576)-hFc (Fc fusion)
chain: VSAVDPVAAGGTGSGGGGPGGSGGVGGGSGGYTYFTTVTVETLETQPGEEALQPRGTEKEPPGPTTDGVWGGGRPGDAAGPASSSTTAPAPRSSRPTEKAFTVPITDVTENALKDLDDVMKTTK
As to B1, in assay [6], the IC50 came out at 8.1 nM.

B2: His-TEV LRRC4B(36-576) (domain or fragment, human, UniProt Q9NT99 36-576, looked up)
chain: AGGGGVAVTSAAGGGSPPATSCPVACSCSNQASRVICTRRDLAEVPASIPVNTRYLNLQENGIQVIRTDTFKHLRHLEILQLSKNLVRKIEVGAFNGLPSLNTLELFDNRLTTVPTQAFEYLSKLRELWLRNNPIESIPSYAFNRVPSLRRLDLGELKRLEYISEAAFEGLVNLRYLNLGMCNLKDIPNLTALVRLEELELSGNRLDLIRPGSFQGLTSLRKLWLMHAQVATIERNAFDDLKSLEELNLSHNNLMSLPHDLFTPLHRLERVHLNHNPWHCNCDVLWLSWWLKETVPSNTTCCARCHAPAGLKGRYIGELDQSHFTCYAPVIVEPPTDLNVTEGMAAELKCRTGTSMTSVNWLTPNGTLMTHGSYRVRISVLHDGTLNFTNVTVQDTGQYTCMVTNSAGNTTASATLNVSAVDPVAAGGTGSGGGGPGGSGGVGGGSGGYTYFTTVTVETLETQPGEEALQPRGTEKEPPGPTTDGVWGGGRPGDAAGPASSSTTAPAPRSSRPTEKAFTVPITDVTENALKDLDDVMKTTK
Consider B2, for which the binding result in assay [7] is given as “binds”.

The values above are taken from paper doi:10.1101/2023.11.22.568357 (bioRxiv, 2023).
